B1: RAD51 (parent)
chain: RFLRMLLRLADEFGVAVVITNQVV

Variants of: B1
Assay: protein stability index of a GFP-peptide fusion (GPS, HEK-293T) (PSI 1-6); higher = more stable
Settings: c terminus: a fixed tail appended
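Also: lentivirally expressed fusions sorted by FACS into six bins by GFP to DsRed ratio, PSI derived from sequencing read proportions per bin multiplied by bin number.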

Row | Variant | protein stability index
1 | Q22F | 1.29
2 | Q22E | 3.17
3 | Q22A | 1.52
4 | Q22D | 1.65
5 | Q22K | 1.39
6 | Q22H | 1.9
7 | Q22I | 1.43
8 | Q22G | 2.92
9 | Q22C | 2.3
10 | F13M | 2.21
11 | F13L | 2.56
12 | F13P | 1.25
13 | F13S | 1.59
14 | F13T | 1.97
15 | F13A | 1.3
16 | F13E | 2.74
17 | F13H | 1.86
18 | F13G | 2.04
19 | F13Y | 1.72
20 | F13W | 3.5
21 | F13R | 2.34
22 | F13K | 2.2
23 | F13Q | 1.61
24 | F13D | 3.29

Row | Variant | protein stability index
25 | F13N | 1.26
26 | D11R | 2.85
27 | D11C | 2.06
28 | D11K | 3.43
29 | D11V | 2.46
30 | D11N | 1.66
31 | D11A | 3.02
32 | D11Y | 3.81
33 | D11L | 2.46
34 | D11T | 2.51
35 | D11I | 2.43
36 | D11E | 1.97
37 | D11P | 1.85
38 | D11S | 2.32
39 | G14Q | 1.69
40 | G14F | 4.07
41 | G14N | 2.03
42 | G14K | 1.96
43 | G14H | 1.82
44 | G14L | 3.4
45 | G14R | 2.06
46 | G14C | 2.4
47 | G14S | 1.53
48 | G14E | 1.92

Row | Variant | protein stability index
49 | G14T | 1.94
50 | G14Y | 3.29
51 | G14P | 1.33
52 | G14M | 1.74
53 | G14D | 2.97
54 | G14V | 2.18
55 | G14A | 2.83
56 | R8H | 3.25
57 | R8L | 3.02
58 | R8K | 2.33
59 | R8D | 2.57
60 | R8S | 2.96
61 | R8N | 1.78
62 | R8F | 2.47
63 | R8V | 2.87
64 | R8C | 2.36
65 | R8A | 1.42
66 | R8I | 3.12
67 | R8G | 1.46
68 | R8Q | 2.09
69 | R8W | 1.83
70 | R8M | 2.17
71 | R4C | 2.77
72 | R4Y | 2.93

Row | Variant | protein stability index
73 | R4W | 1.77
74 | R4V | 1.91
75 | R4A | 2.24
76 | R4K | 2.82
77 | R4M | 1.97
78 | R4I | 2.45
79 | R4N | 3.36
80 | R4P | 2.39
81 | R4E | 1.23
82 | R4F | 2.58
83 | R4Q | 1.92
84 | R4D | 1.96
85 | R4H | 2.49
86 | R4S | 3.21
87 | R4T | 2.42
88 | A16Y | 1.93
89 | A16K | 2.4
90 | A16I | 2.24
91 | A16L | 2.2
92 | A16V | 1.34
93 | A16R | 2.25
94 | A16C | 1.43
95 | A16H | 3.12
96 | A16W | 2.44

Row | Variant | protein stability index
97 | A16P | 1.08
98 | A16S | 2.34
99 | A16T | 1.79
100 | A16F | 1.55
101 | A16D | 3.29
102 | A16Q | 1.87
103 | A16N | 3.11
104 | A16M | 3.12
105 | F2W | 1.88
106 | F2V | 1.59
107 | F2T | 3.18
108 | F2Y | 2.21
109 | F2S | 1.91
110 | L9M | 1.54
111 | L9E | 1.65
112 | L9V | 2.38
113 | L9G | 3.55
114 | L9S | 1.76
115 | L9F | 1.76
116 | L9P | 3.32
117 | L9R | 1.7
118 | L9T | 2.51
119 | L9Q | 2.88
120 | L9N | 2.37

Row | Variant | protein stability index
121 | L9D | 2.1
122 | L9Y | 2.89
123 | L9I | 2.52
124 | L9K | 1.98
125 | L3I | 1.35
126 | L3T | 3.74
127 | L3R | 1.17
128 | L3K | 2.6
129 | L3Y | 2.14
130 | L3Q | 1.78
131 | L3S | 3.09
132 | L3C | 1.78
133 | L3W | 2.03
134 | L3H | 2.75
135 | L3V | 3.98
136 | L3E | 3.2
137 | L3G | 2.62
138 | L3A | 4.15
139 | L3N | 3.69
140 | L3M | 2.19
141 | L3D | 2.04
142 | L6S | 3.28
143 | L6W | 2.54
144 | L6K | 1.96

Row | Variant | protein stability index
145 | L6Y | 3.5
146 | L6Q | 4.57
147 | L6N | 2.75
148 | L6T | 3.04
149 | L6F | 3.14
150 | L6H | 1.55
151 | L6C | 2.78
152 | L6V | 2.54
153 | L6P | 3.81
154 | L6R | 2.89
155 | L6G | 2.56
156 | L6A | 1.91
157 | L6M | 2.02
158 | L7F | 2.04
159 | L7M | 1.55
160 | L7I | 2.79
161 | L7W | 1.94
162 | L7H | 2.34
163 | L7T | 2.6
164 | L7E | 2.69
165 | L7N | 1.71
166 | L7Y | 2.13
167 | L7V | 2.15
168 | L7Q | 2.34

Row | Variant | protein stability index
169 | L7S | 1.6
170 | L7A | 1.25
171 | L7P | 2.49
172 | L7C | 2.54
173 | L7G | 3.06
174 | L7D | 1.3
175 | L7K | 1.98
176 | L7R | 1.49
177 | A10M | 3.27
178 | A10C | 1.79
179 | A10Y | 3.62
180 | A10K | 2.9
181 | A10I | 3.61
182 | A10Q | 1.82
183 | A10T | 3.2
184 | A10D | 1.97
185 | A10F | 2.21
186 | A10E | 2.5
187 | A10H | 1.64
188 | A10P | 2.33
189 | A10V | 1.95
190 | A10L | 3.03
191 | A10R | 1.65
192 | A10N | 2.58

Row | Variant | protein stability index
193 | A10S | 1.65
194 | V17Q | 1.25
195 | V17T | 2.11
196 | V17M | 2.49
197 | V17D | 2.06
198 | V17G | 3.41
199 | V17C | 1.06
200 | V17K | 2.65
201 | V17F | 2.19
202 | V17P | 1.86
203 | V17H | 2.9
204 | V17S | 1.36
205 | V17W | 2.41
206 | V17L | 2.96
207 | V17Y | 2.83
208 | V17R | 1.52
209 | V17N | 2.35
210 | V17A | 1.67
211 | V17E | 2.58
212 | V17I | 3.4
213 | V18W | 2.75
214 | V18E | 2.44
215 | V18P | 2.32
216 | V18R | 2.94

Row | Variant | protein stability index
217 | V18M | 3.82
218 | V18F | 1.24
219 | V18D | 2.79
220 | V18L | 2.62
221 | V18K | 3.09
222 | V18N | 3.8
223 | V18H | 3.04
224 | V18T | 3.38
225 | V18Q | 2.87
226 | V18G | 2.45
227 | V18I | 1.87
228 | V18A | 3.03
229 | V18C | 2.1
230 | V18S | 3.17
231 | I19F | 2.18
232 | I19V | 1.63
233 | I19D | 2.76
234 | I19T | 2.84
235 | I19R | 3
236 | I19W | 1.96
237 | I19Y | 2.79
238 | I19P | 1.47
239 | I19A | 3.02
240 | I19C | 2

Row | Variant | protein stability index
241 | I19H | 1.25
242 | I19Q | 1.37
243 | I19G | 1.58
244 | I19S | 1.95
245 | I19K | 2.52
246 | I19L | 1.45
247 | I19N | 2.67
248 | T20C | 1.8
249 | T20Y | 1.97
250 | T20G | 1.98
251 | T20K | 3.31
252 | T20L | 2.3
253 | T20D | 2.52
254 | T20N | 1.21
255 | T20A | 2.68
256 | T20E | 1.53
257 | T20Q | 2.26
258 | T20W | 3.05
259 | T20V | 2.82
260 | T20M | 1.44
261 | T20I | 2.75
262 | T20S | 3.06
263 | T20R | 2.34
264 | T20P | 2.72

Row | Variant | protein stability index
265 | T20F | 1.3
266 | V15L | 2.06
267 | V15R | 2.32
268 | V15W | 2.43
269 | V15N | 2.31
270 | V15Q | 3.05
271 | V15F | 2.82
272 | V15S | 3.16
273 | V15E | 2.08
274 | V15P | 3.13
275 | V15H | 2.6
276 | V15I | 2.51
277 | V15A | 1.79
278 | V15M | 1.56
279 | V15C | 3.16
280 | V15G | 1.98
281 | V15D | 1.77
282 | V15K | 2.75
283 | V15Y | 1.8
284 | N21D | 4.17
285 | N21E | 1.08
286 | N21F | 2.06
287 | N21Y | 2.19
288 | N21P | 1.7

Row | Variant | protein stability index
289 | N21M | 4.31
290 | N21A | 2.52
291 | N21H | 1.43
292 | N21W | 1.76
293 | N21C | 1.32
294 | N21V | 2.43
295 | N21G | 3.1
296 | N21L | 1.97
297 | N21R | 1.68
298 | N21S | 1.19
299 | N21I | 1.43
300 | N21Q | 1.9
301 | N21T | 2.02
302 | N21K | 2.3
303 | E12N | 1.68
304 | E12I | 3.64
305 | E12K | 2.42
306 | E12P | 2.01
307 | E12Q | 3.13
308 | E12F | 3.25
309 | E12R | 3.5
310 | E12D | 2.48
311 | E12M | 2.33
312 | E12S | 2.08

Row | Variant | protein stability index
313 | E12V | 1.94
314 | E12A | 2.02
315 | E12H | 3.24
316 | E12G | 1.3
317 | E12T | 1.46
318 | E12C | 3.13
319 | E12L | 2.75
320 | M5K | 4.13
321 | M5N | 1.93
322 | M5S | 2.93
323 | M5R | 1.83
324 | M5I | 2.23
325 | M5F | 2.15
326 | M5C | 3.05
327 | M5T | 3.18
328 | M5D | 2.28
329 | M5L | 2.13
330 | M5E | 2.43
331 | M5H | 3.79
332 | M5Q | 2.11
333 | M5Y | 2.57
334 | M5A | 3.9

Reference: the supplement of paper PMC10567573
